Measured values as given in paper PMC6441080, “Coordination of capsule assembly and cell wall biosynthesis in Staphylococcus aureus” (Nature Communications, 2019).

Tested on: CC(=O)N[C@H]1[C@@H](OP(=O)(O)OP(=O)(O)OC[C@H]2O[C@@H](n3ccc(=O)[nH]c3=O)[C@H](O)[C@@H]2O)O[C@H](C)[C@H](O)[C@@H]1O
Assay: purified protein
Conditions: Mg2+

## CapM (Staphylococcus aureus subsp. aureus USA300)
  Km: 2,309 ± 311.8 µM
